This is an account of results in patent publication US20080026996A1, “Selective Vpac2 Receptor Reptide Agonists” (ELI LILLY AND COMPANY, priority 2004, published 2008).

The labels stand for the following.
T1: human VPAC2 receptor (human, UniProt P41587 24-438)
T1 sequence (looked up): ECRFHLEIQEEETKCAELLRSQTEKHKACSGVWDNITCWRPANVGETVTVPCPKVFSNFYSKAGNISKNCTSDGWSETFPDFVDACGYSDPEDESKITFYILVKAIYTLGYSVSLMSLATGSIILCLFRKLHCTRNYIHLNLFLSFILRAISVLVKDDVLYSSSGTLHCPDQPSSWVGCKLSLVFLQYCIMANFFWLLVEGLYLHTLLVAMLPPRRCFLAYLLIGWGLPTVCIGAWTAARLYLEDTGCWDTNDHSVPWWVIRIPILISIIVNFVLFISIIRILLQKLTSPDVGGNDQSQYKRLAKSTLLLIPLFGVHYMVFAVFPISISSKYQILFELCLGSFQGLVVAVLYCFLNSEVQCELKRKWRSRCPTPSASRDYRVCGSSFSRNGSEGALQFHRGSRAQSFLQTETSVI

Where no end group is shown, it is not given here. [ ]: non-standard residue; d: D form. The star is where a group is joined. Orn = NCCC[C@H](N)C(=O)O; Hexanoyl = CCCCCC(=O)*; Aib = CC(C)(N)C(=O)O

The target in this experiment is T1, human VPAC2 receptor. Description: cell-based or functional assay.
Take HSDAVFTDNYTRLRKQVAAKKYLQSIKNKKGGPSSGAPPPS [P9]: the “EC50 cAMP, DiscoveRx” value was determined as 2.41 nM. As to HSDAVFTDNYTRLRKQVAAKKYLQSIKNKRGGT [P7], the “EC50 cAMP, DiscoveRx” value was found to be 2.78 nM.

For HSDAVFTDNYTRLRKQVAAKKYLQSIKNKKGGT [P8], the “EC50 cAMP, DiscoveRx” value stood at 1.61 nM. For HSDAVFTDNYTRLXXQVAAXKYLQSIKNKRYGGPSSGAPPPS (N-terminal hexanoyl (C6); hR at 14; Aib at 15, 20) [P316], the “EC50 cAMP, Alpha Screen” value was 0.3 nM. For HSDAVFTDNYTRLXXQVAAXKYLQSIKNKRYGGPSSGAPPPS (N-terminal hexanoyl (C6); Cit at 14; Aib at 15, 20) [P320], the “EC50 cAMP, Alpha Screen” value is 0.49 nM.

Turning to HSDAVWTDNYTRLRKQVAAKKYLQSIKNKRYGGPSSGAPPPS [P67], the “EC50 cAMP, Alpha Screen” value worked out at 94.1 nM. On the same count and under the same terms, to Hexanoyl-HSDAVFTDNYTRLR[Aib]QVAA[Aib]KYLQSIK[Aib]GGPSSGAPPPS (ends and bridges not checked) [P355] belongs 0.1 nM; to Hexanoyl-HSDAVFTDNYTRLR[Aib]QVAA[Aib]KYLQSIKPKGGPSSGAPPPS (ends and bridges not checked) [P350], 0.13 nM.

With Hexanoyl-HSDAVFTDNYTALR[Aib]QVAA[Aib]KYLQSI[Orn]N[Orn]GGPSSGAPPPS [P366], the “EC50 cAMP, Alpha Screen” value was 2.6 nM.

For Hexanoyl-HSDAVFTDNYTRLR[Orn]QVAAKKYLQSIKNKRYGGPSSGAPPPS (ends and bridges not checked) [P307], the “EC50 cAMP, Alpha Screen” value stood at 0.32 nM. As for Hexanoyl-HSDAVFTDNYTRLR[Aib]QVAA[Aib]KYLQSI[dK][dK]GGPSSGAPPPS (ends and bridges not checked) [P353], the “EC50 cAMP, Alpha Screen” value was 0.18 nM. Consider Hexanoyl-HSDAVFTDNYTRL[Orn][Aib]QVAA[Aib]KYLQSIKNKRYGGPSSGAPPPS (ends and bridges not checked) [P319], for which the “EC50 cAMP, Alpha Screen” value stood at 0.26 nM. Consider Hexanoyl-HSDAVFTDNYTRLR[Aib]QVAA[Aib]KYLQSIK[Aib]KGGPSSGAPPPS (ends and bridges not checked) [P349], for which the “EC50 cAMP, Alpha Screen” value amounted to 0.08 nM. For the molecule HSDAVFTDNYTXLRXQLAAXKYLQSIXNXGGPSSGAPPPS (N-terminal hexanoyl (C6); Orn at 12, 27, 29; Aib at 15, 20) [P364], the “EC50 cAMP, Alpha Screen” value came to 0.11 nM.

Regarding HSDAVFTDNYTXLRXQIAAXKYLQSIXNXGGPSSGAPPPS (N-terminal hexanoyl (C6); Orn at 12, 27, 29; Aib at 15, 20) [P365], the “EC50 cAMP, Alpha Screen” value stood at 0.13 nM. For the molecule [dH]SDAVFTDNYTRLRKQVAAKKYLQSIKNKRYGGPSSGAPPPS [P84], the “EC50 cAMP, Alpha Screen” value came to 185 nM. For Hexanoyl-HSDAVFTDNYTRLR[Aib]QVAAK[Aib]YLQSIKQGGPSSGAPPPS (ends and bridges not checked) [P298], the “EC50 cAMP, Alpha Screen” value is 0.5 nM. The same measure, in the same setting: to Hexanoyl-HSDAVFTDNYTRLRKQVAAQKYLNQLKKGGPSSGAPPPS [P144] belongs 0.32 nM. In the case of Hexanoyl-HSDAVFTDNYTRL[Aib]KQVAA[Aib]KYLQSIKQGGPSSGAPPPS (ends and bridges not checked) [P296], the “EC50 cAMP, Alpha Screen” value is 6.69 nM. Hexanoyl-HSDAVFTDNYTRLR[Aib]QVAA[Aib]KYLQSIKKGGPSSGAPPPS (ends and bridges not checked) [P351]: the “EC50 cAMP, Alpha Screen” value stood at 0.11 nM.

Hexanoyl-H[Aib]DAVFTDNYTRLRKQVAAKKYLQSIKNKRYGGPSSGAPPPS (ends and bridges not checked) [P166]: the “EC50 cAMP, Alpha Screen” value amounted to 0.15 nM.

For the molecule Hexanoyl-HSDAVFTDNYTRLR[Aib]QVAA[Aib]KYLQSIKQGGPSSGAPPPS (ends and bridges not checked) [P297], the “EC50 cAMP, Alpha Screen” value turned out to be 0.36 nM. Consider Hexanoyl-HSDAVFTDNYT[Aib]LR[Aib]QVAA[Aib]KYLQSIKNKRYGGPSSGAPPPS (ends and bridges not checked) [P345], for which the “EC50 cAMP, Alpha Screen” value was found to be 1.17 nM. In the case of HSDAVFTDNYTRLRXQVAAXKYLQSIKXGGPSSGAPPPS (N-terminal hexanoyl (C6); Aib at 15, 20; hR at 28) [P354], the “EC50 cAMP, Alpha Screen” value was found to be 0.14 nM. For Hexanoyl-HSDAVFTDNYTRLRKQVAAKKYLQ[Aib]IKNKRYGGPSSGAPPPS (ends and bridges not checked) [P187], the “EC50 cAMP, Alpha Screen” value stood at 0.4 nM. Same read-out and setting: next, Hexanoyl-HSDAVFTDNYTRLRKQVAAKKYLQSIKNKRGGPSSGAPPPS [P123]: 0.12 nM.

As for Hexanoyl-HSDAVFTDNYTRLRKQVAAKKYLQSIKNSRGGPSSGAPPPS [P122], the “EC50 cAMP, Alpha Screen” value is 0.14 nM.
